Tested on: CXCR4-B16 cells
Test: adhesion of CXCR4-B16 cells to resting DMEC in parallel plate flow chamber
Format: cell-based, murine
Settings: exogenously added chemokine
Description: Prior to interaction with tumor cells, resting confluent DMEC or LMEC were exposed to 100 ng/ml of recombinant CXCL12 or CCL21 for 15 min at 20° C. as described (Cinamon et al., Nat. Immunol. 2: 515-22 (2001)). After unbound chemokine was washed away, calcein-AM-labeled (Molecular Probes, Eugene, Oreg.) CXCR4- or pLNCX2-B16 cells (2.5×10^5/ml in B16 medium) were injected at 1.5 dynes/cm^2 into a parallel plate flow chamber (Glycotech, Gaithersburg, Md.) containing confluent DMEC or LMEC. In some cases, tumor cells were treated with pertussis toxin (PTX, Calbiochem, San Diego, Calif.) at 100 ng/ml for 2 hours at 37° C. to block Gi-protein-coupled signaling. After two min, flow was stopped, which enabled B16 cells to interact with MEC in the absence of shear stress. After 5 min, shear was re-established at 1.5 dynes/cm^2 for up to 2 min in order to detach unbound cells; adherent cells were digitally photographed in 5-6 random fields (each field=1.18 mm^2) with excitation at 488 nm and emission at 513 nm using sufficient exposure time (˜1 s) to allow distinction between non-moving and moving cells (which appeared as dim streaks) (Fitzhugh et al. (2000), supra). Cells were then counted with the software program IPlab (Scanalytics, Fairfax, Va.). […]

B1: CCL21: recombinant chemokine used as control on DMEC (protein, UniProt O00585 24-134, looked up)
C-C motif chemokine 21: SDGGAQDCCLKYSQRKIPAKVVRSYRKQEPSLGCSIPAILFLPRKRSQAELCADPKELWVQQLMQHLDKTPSPQKPAQGCRKDRGASKTGKKGKGSKGCKRTERSQTPKGP
**Q.** Which “stimulation of adhesion of CXCR4-B16 cells to DMEC” value does the source give for B1 here?
**A.** no effect
